Measurements published in IntAct's records for PubMed 24075010.

B1: Myocyte-specific enhancer factor 2 (Drosophila melanogaster (Fruit fly)), P40791 (parent)
chain: MGRKKIQISRITDERNRQVTFNKRKFGVMKKAYELSVLCDCEIALIIFSSSNKLYQYASTDMDRVLLKYTEYNEPHESLTNKNIIEKENKNGVMSPDSPEAETDYTLTPRTEAKYNKIDEEFQNMMQRNQMAIGGAGAPRQLPNSSYTLPVSVPVPGSYGDNLLQASPQMSHTNISPRPSSSETDSGGMSLIIYPSGSMLEMSNGYPHSHSPLVGSPSPGPSPGIAHHLSIKQQSPGSQNGRASNLRVVIPPTIAPIPPNMSAPDDVGYADQRQSQTSLNTPVVTLQTPIPALTSYSFGAQDFSSSGVMNSADIMSLNTWHQGLVPHSSLSHLAVSNSTPPPATSPVSIKVKAEPQSPPRDLSASGHQQNSNGSTGSGGSSSSTSSNASGGAGGGGAVSAANVITHLNNVSVLAGGPSGQGGGGGGGGSNGNVEQATNLSVLSHAQQHHLGMPNSRPSSTGHITPTPGHDKYEGYPYRALMGHNPRWNLNFAGAPSSDQDVRLAAVAVQQQQQQPHQQQQLGDYDAPNHKRPRISGGWGT
partner: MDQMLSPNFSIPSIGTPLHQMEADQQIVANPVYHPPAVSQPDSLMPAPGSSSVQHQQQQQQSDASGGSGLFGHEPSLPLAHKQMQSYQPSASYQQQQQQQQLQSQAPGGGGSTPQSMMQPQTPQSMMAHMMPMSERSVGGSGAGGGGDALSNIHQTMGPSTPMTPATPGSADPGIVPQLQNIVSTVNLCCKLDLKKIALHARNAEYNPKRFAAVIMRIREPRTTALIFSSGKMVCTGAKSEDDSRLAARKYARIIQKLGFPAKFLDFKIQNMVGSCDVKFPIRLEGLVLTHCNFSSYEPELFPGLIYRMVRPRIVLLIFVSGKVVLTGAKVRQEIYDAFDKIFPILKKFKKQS

Variants of: B1
Conditions: with tbp_drome Tbp

Variant	effect of a mutation on the interaction
T20A	increasing interaction strength
T20E	decreasing interaction strength
